Laboratory results as given in the supplement of paper PMC10567573.

B1: KRT34 (parent)
chain: YQSYFKTIEELQQKILCAKAENAR

Variants of: B1
Test: protein stability index of a GFP-peptide fusion (GPS, HEK-293T) (PSI 1-6); higher = more stable
Details: c terminus: a fixed tail appended
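Note: lentivirally expressed fusions sorted by FACS into six bins by GFP to DsRed ratio, PSI derived from sequencing read proportions per bin multiplied by bin number.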

In order of rising protein stability index:
1. YQSYFKTIEQLQQKILCAKAENAR [E10Q]  1.19
2. YQSYFKTIEESQQKILCAKAENAR [L11S]  1.2
3. YQSYFKTIETLQQKILCAKAENAR [E10T]  1.27
4. YQSYFKTIEELQQKIWCAKAENAR [L16W]  1.29
5. YQSYFKTIPELQQKILCAKAENAR [E9P]  1.29
6. YQSYFKTIEEVQQKILCAKAENAR [L11V]  1.35
7. YQSYFKTTEELQQKILCAKAENAR [I8T]  1.35
8. YQSYFKTIEEFQQKILCAKAENAR [L11F]  1.4
9. YQSYFKTIEELQQKIPCAKAENAR [L16P]  1.41
10. YQSYFKTWEELQQKILCAKAENAR [I8W]  1.42
11. YQSYFKTIECLQQKILCAKAENAR [E10C]  1.44
12. YQSYFKTIEELQQKILCEKAENAR [A18E]  1.45
13. YQSYFKTIEEDQQKILCAKAENAR [L11D]  1.5
14. YQSYFKTIEELQQKILCHKAENAR [A18H]  1.53
15. YQSYFKTILELQQKILCAKAENAR [E9L]  1.53
16. YQSYFKTIEEHQQKILCAKAENAR [L11H]  1.55
17. YQSYFKTIEELQQKIFCAKAENAR [L16F]  1.6
18. YQSYFKTIEDLQQKILCAKAENAR [E10D]  1.61
19. YQSYFKTIEETQQKILCAKAENAR [L11T]  1.62
20. YQSYFKTIGELQQKILCAKAENAR [E9G]  1.64
21. YQSYFKTIYELQQKILCAKAENAR [E9Y]  1.64
22. YQSYFKTIEELQQKIQCAKAENAR [L16Q]  1.66
23. YQSYFKTIEELQQKIICAKAENAR [L16I]  1.67
24. YQSYFKTIEELQQKILCRKAENAR [A18R]  1.68
25. YQSYFKTIEHLQQKILCAKAENAR [E10H]  1.69
26. YQSYFKTIEGLQQKILCAKAENAR [E10G]  1.7
27. YQSYFKTIEWLQQKILCAKAENAR [E10W]  1.72
28. YQSYFKTIEELQQKITCAKAENAR [L16T]  1.72
29. YQSYFKTIFELQQKILCAKAENAR [E9F]  1.73
30. YQSYFKTIEELQQKINCAKAENAR [L16N]  1.75
31. YQSYFKTSEELQQKILCAKAENAR [I8S]  1.77
32. YQSYFKTIAELQQKILCAKAENAR [E9A]  1.77
33. YQSYFKTIEELQQKILCGKAENAR [A18G]  1.78
34. YQSYFKTIEEAQQKILCAKAENAR [L11A]  1.79
35. YQSYFKTIEELQQKIACAKAENAR [L16A]  1.8
36. YQSYFKTIEEMQQKILCAKAENAR [L11M]  1.81
37. YQSYFKTIEKLQQKILCAKAENAR [E10K]  1.81
38. YQSYFKTIEERQQKILCAKAENAR [L11R]  1.83
39. YQSYFKTIEELQQKILCQKAENAR [A18Q]  1.83
40. YQSYFKTIESLQQKILCAKAENAR [E10S]  1.83
41. YQSYFKTIEELQQKICCAKAENAR [L16C]  1.84
42. YQSYFKTICELQQKILCAKAENAR [E9C]  1.87
43. YQSYFKTIEEEQQKILCAKAENAR [L11E]  1.88
44. YQSYFKTIEELQQKILCVKAENAR [A18V]  1.88
45. YQSYFKTIEELQQKIMCAKAENAR [L16M]  1.89
46. YQSYFKTIQELQQKILCAKAENAR [E9Q]  1.9
47. YQSYFKTIELLQQKILCAKAENAR [E10L]  1.91
48. YQSYFKTIEELQQKIKCAKAENAR [L16K]  1.92
49. YQSYFKTIEEWQQKILCAKAENAR [L11W]  1.93
50. YQSYFKTIEPLQQKILCAKAENAR [E10P]  1.93
51. YQSYFKTIEALQQKILCAKAENAR [E10A]  1.95
52. YQSYFKTIEILQQKILCAKAENAR [E10I]  1.96
53. YQSYFKTIEELQQKIDCAKAENAR [L16D]  1.96
54. YQSYFKTIEELQQKISCAKAENAR [L16S]  1.97
55. YQSYFKTIEEQQQKILCAKAENAR [L11Q]  1.98
56. YQSYFKTIEELQQKILCKKAENAR [A18K]  1.99
57. YQSYFKTISELQQKILCAKAENAR [E9S]  1.99
58. YQSYFKTIEMLQQKILCAKAENAR [E10M]  2
59. YQSYFKTIIELQQKILCAKAENAR [E9I]  2
60. YQSYFKTIEELQQKIGCAKAENAR [L16G]  2.02
61. YQSYFKTIEELQQKIRCAKAENAR [L16R]  2.02
62. YQSYFKTIEELQQKILCLKAENAR [A18L]  2.04
63. YQSYFKTIEELQQKILCIKAENAR [A18I]  2.04
64. YQSYFKTIEVLQQKILCAKAENAR [E10V]  2.04
65. YQSYFKTIEELQQKILCNKAENAR [A18N]  2.07
66. YQSYFKTIEEYQQKILCAKAENAR [L11Y]  2.08
67. YQSYFKTIEELQQKILCTKAENAR [A18T]  2.1
68. YQSYFKTIEELQQKIHCAKAENAR [L16H]  2.12
69. YQSYFKTIEEIQQKILCAKAENAR [L11I]  2.13
70. YQSYFKTIEELQQKILCDKAENAR [A18D]  2.16
71. YQSYFKTIEELQQKILCYKAENAR [A18Y]  2.16
72. YQSYFKTIENLQQKILCAKAENAR [E10N]  2.19
73. YQSYFKTIKELQQKILCAKAENAR [E9K]  2.2
74. YQSYFKTIEELQQKILCPKAENAR [A18P]  2.21
75. YQSYFKTIWELQQKILCAKAENAR [E9W]  2.23
76. YQSYFKTIDELQQKILCAKAENAR [E9D]  2.25
77. YQSYFKTIEELQQKIYCAKAENAR [L16Y]  2.28
78. YQSYFKTIEEPQQKILCAKAENAR [L11P]  2.3
79. YQSYFKTIEEKQQKILCAKAENAR [L11K]  2.34
80. YQSYFKTIEENQQKILCAKAENAR [L11N]  2.41
81. YQSYFKTIEFLQQKILCAKAENAR [E10F]  2.41
82. YQSYFKTINELQQKILCAKAENAR [E9N]  2.45
83. YQSYFKTIHELQQKILCAKAENAR [E9H]  2.46
84. YQSYFKTIERLQQKILCAKAENAR [E10R]  2.49
85. YQSYFKTIEELQQKILCCKAENAR [A18C]  2.5
86. YQSYFKTYEELQQKILCAKAENAR [I8Y]  2.52
87. YQSYFKTIEECQQKILCAKAENAR [L11C]  2.56
88. YQSYFKTIEEGQQKILCAKAENAR [L11G]  2.58
89. YQSYFKTIEELQQKIECAKAENAR [L16E]  2.63
90. YQSYFKTIEELQQKILCWKAENAR [A18W]  2.73
91. YQSYFKTIEYLQQKILCAKAENAR [E10Y]  2.74
92. YQSYFKTIEELQQKILCFKAENAR [A18F]  2.75
93. YQSYFKTVEELQQKILCAKAENAR [I8V]  2.85
94. YQSYFKTIMELQQKILCAKAENAR [E9M]  3.64
